Assay results reported in patent US20190211104A1 (Merck KGaA, published 2019).

Biological target: T1, carboxyterminal peptide of PD-L1 (SEQ ID NO: 1, RLRKGRMMDVKKCGIQDTNSKKQSDTHLEET) (human)
T1 construct: The immunogen was the KLH-coupled peptide; also called immunogen
T1 peptide: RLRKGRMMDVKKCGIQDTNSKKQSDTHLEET
Assay: ELISA, wells coated with the peptide immunogen

binding result: binds
B1: inventive antibody clone MKP1A07310 (rabbit monoclonal recombinant anti-PD-L1 antibody) (antibody, V domains shown)
VH: QEQLVESGGGLVTPGGSLTLTCTVSTIDLSTFAISWVRQAPGKGLEWIGTINTDLTTYYVNWAKGRFTISKTSSTTVDLKMTGLTIEDTATYFCARKLFGNGNVWGPGTLVTVSS
VL: QVLTQTPSPVSASVGSTVTINCQASQSLHRNNYLSWFQQKPGQPPKQLIYQASTLASGVSSRFSGSGSGTQFTLTISDVVCDDAATYYCLGGVSGGPYPFGGGTEVVVKG
notes: Rabbit monoclonal, produced as recombinant antibody in HEK-293 cells; VH 110, VL 111) and calls clone MKP1A07310 'the inventive antibody'; also called MKP1A7310; MKP-1A-73-10
